The values that follow come from patent US20210077575A1 (CEDARS SINAI MEDICAL CENTER, published 2021).

For the experiment, the target named is T1, HER3 (human, UniProt P21860 20-1342).
T1 construct: whole, on cells; Endogenous receptor on tumour cell lines; also called ErbB3; Human ErbB3/HER3
In words: confocal immunofluorescence, SK-MEL-2 cells treated with HerPBK10-GFPD10 nanoparticles, 0 minutes.

T1 sequence (P21860 20-1342): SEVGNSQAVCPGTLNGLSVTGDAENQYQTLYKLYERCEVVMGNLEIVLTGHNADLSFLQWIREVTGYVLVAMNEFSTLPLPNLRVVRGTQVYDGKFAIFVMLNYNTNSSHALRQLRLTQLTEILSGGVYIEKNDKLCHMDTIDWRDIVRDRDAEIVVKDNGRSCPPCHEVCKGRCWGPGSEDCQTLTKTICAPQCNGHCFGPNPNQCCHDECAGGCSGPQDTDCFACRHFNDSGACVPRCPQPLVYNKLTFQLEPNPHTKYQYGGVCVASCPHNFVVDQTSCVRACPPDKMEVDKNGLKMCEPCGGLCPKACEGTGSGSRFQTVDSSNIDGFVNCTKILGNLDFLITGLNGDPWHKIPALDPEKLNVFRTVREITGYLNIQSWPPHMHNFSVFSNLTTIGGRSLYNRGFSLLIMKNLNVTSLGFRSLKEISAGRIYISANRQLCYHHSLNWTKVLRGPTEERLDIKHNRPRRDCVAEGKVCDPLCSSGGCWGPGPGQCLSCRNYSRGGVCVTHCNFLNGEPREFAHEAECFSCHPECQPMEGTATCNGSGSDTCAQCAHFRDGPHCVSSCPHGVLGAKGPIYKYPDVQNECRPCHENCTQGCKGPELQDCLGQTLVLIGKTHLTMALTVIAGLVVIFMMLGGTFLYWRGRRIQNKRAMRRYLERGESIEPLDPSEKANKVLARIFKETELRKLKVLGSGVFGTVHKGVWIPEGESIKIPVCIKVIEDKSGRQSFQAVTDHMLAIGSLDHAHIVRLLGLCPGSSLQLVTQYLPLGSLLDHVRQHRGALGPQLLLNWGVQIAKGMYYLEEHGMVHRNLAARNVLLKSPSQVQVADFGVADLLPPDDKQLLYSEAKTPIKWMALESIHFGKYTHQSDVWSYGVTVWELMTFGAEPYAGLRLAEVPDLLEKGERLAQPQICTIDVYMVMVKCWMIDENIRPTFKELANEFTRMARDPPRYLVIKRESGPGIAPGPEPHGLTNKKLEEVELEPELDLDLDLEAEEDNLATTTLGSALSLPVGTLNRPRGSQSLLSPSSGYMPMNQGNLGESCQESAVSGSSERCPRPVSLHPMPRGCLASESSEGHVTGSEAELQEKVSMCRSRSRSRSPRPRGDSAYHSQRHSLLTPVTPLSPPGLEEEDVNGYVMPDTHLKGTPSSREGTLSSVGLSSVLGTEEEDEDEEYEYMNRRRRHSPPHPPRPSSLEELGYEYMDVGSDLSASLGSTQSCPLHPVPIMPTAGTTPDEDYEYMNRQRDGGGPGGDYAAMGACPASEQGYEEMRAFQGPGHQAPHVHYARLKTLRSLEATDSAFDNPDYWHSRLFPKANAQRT
Description: The cells were counterstained using DAPI to stain the nucleus and rhodamine phalloidin to stain actin.
Images were taken after 0, 15, 30, 60, and 120 minutes using confocal microscopy.

B1: HerPBK10 carrier polypeptide comprising a Her cell-targeting segment, a penton base (PB) segment, a decalysine (K10) binding segment, and an N-terminal … (other)
chain: MRGSHHHHHHGMASMTGGQQMGRDLYDDDDKDRWGSELLPPQLKEMKSQESAAGSKLVLRCETSSEYSSLRFKWFKNGNELNRKNKPQNIKIQKKPGKSELRINKASLADSGEYMCKVISKLGNDSASANIAIVESNEIITGMPASTEGAYVSSESPIRISVSTEGANTSSSTSTSTTGTSHLVKCAEKEKTFCVNGGECFMVKDLSNPSRYLCKCQPGFTGARCTENVPMKVQNQEKAEELYGGSGGSRSMRRAAMYEEGPPPSYESVVSAAPVAAALGSPFDAPLDPPFVPPRYLRPTGGRNSIRYSELAPLFDTTRVYLVDNKSTDVASLNYQNDHSNFLTTVIQNNDYSPGEASTQTINLDDRSHWGGDLKTILHTNMPNVNEFMFTNKFKARVMVSRLPTKDNQVELKYEWVEFTLPEGNYSETMTIDLMNNAIVEHYLKVGRQNGVLESDIGVKFDTRNFRLGFDPVTGLVMPGVYTNEAFHPDIILLPGCGVDFTHSRLSNLLGIRKRQPFQEGFRITYDDLEGGNIPALLDVDAYQASLKDDTEQGGGGAGGSNSSGSGAEENSNAAAAAMQPVEDMNDHAIRGDTFATRAEEKRAEAEAAAEAAAPAAQPEVEKPQKKPVIKPLTEDSKKRSYNLISNDSTFTQYRSWYLAYNYGDPQTGIRSWTLLCTPDVTCGSEQVYWSLPDMMQDPVTFRSTRQISNFPVVGAELLPVHSKSFYNDQAVYSQLIRQFTSLTHVFNRFPENQILARPPAPTITTVSENVPALTDHGTLPLRNSIGGVQRVTITDARRRTCPYVYKALGIVSPRVLSSRTFKKKKKKKKKK
Regarding B1, the binding result is on record as “binds”.
